Experimental data published in publication PMC5727386.

Columns and labels:
[1] = target: Tyrosine phosphatase Sts1 (UniProt Q8BGG7); assay: co-immunoprecipitation (anti-Bcr-Abl/Abl IP, Sts1 immunoblot, quantified); settings: BaF3 cells stably transduced with the Bcr-Abl variants; parent: est. 1.0; read off a plot
[2] = target: Bcr-Abl DH domain (residues 487–702) (UniProt P11274); assay: NMR titration; GTPase titrated to 50 μM 15N-labeled DH domain; 50 mM HEPES pH 7, 50 mM NaCl, 1 mM DTT, 1 mM imidazole, 2 mM EDTA; [15N,1H]-TROSY; about 10 peaks fitted to a 1:1 binding model, mean Kd
Bcr-Abl DH domain (residues 487–702), sequence (P11274 487-702): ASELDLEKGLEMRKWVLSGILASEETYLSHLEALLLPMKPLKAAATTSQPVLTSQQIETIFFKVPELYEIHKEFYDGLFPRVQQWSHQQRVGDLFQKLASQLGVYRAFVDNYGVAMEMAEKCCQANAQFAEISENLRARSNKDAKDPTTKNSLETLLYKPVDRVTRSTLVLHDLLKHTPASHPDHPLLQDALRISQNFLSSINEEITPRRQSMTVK

Tyrosine phosphatase Sts1, sequence (Q8BGG7 whole entry, the tested form may be a part): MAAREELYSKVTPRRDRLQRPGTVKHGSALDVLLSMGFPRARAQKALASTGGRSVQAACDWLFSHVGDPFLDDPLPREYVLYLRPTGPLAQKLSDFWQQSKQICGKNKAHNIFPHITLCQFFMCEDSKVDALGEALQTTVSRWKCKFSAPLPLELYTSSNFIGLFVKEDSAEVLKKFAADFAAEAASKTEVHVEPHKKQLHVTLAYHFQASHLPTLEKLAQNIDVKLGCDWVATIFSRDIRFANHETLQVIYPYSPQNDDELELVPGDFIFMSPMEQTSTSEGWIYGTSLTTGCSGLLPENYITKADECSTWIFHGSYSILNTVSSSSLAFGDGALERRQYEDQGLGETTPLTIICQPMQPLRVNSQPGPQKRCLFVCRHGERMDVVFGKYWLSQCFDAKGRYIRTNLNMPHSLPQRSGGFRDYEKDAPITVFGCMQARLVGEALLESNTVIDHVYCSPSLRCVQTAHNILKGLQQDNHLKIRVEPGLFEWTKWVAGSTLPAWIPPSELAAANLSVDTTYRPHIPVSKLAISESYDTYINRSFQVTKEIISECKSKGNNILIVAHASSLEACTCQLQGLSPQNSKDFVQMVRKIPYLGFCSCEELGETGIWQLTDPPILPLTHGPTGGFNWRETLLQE
Bcr-Abl p210 (from UniProt P11274) R723A; K724A; F1100E, sequence (P11274 whole entry, stated change not applied): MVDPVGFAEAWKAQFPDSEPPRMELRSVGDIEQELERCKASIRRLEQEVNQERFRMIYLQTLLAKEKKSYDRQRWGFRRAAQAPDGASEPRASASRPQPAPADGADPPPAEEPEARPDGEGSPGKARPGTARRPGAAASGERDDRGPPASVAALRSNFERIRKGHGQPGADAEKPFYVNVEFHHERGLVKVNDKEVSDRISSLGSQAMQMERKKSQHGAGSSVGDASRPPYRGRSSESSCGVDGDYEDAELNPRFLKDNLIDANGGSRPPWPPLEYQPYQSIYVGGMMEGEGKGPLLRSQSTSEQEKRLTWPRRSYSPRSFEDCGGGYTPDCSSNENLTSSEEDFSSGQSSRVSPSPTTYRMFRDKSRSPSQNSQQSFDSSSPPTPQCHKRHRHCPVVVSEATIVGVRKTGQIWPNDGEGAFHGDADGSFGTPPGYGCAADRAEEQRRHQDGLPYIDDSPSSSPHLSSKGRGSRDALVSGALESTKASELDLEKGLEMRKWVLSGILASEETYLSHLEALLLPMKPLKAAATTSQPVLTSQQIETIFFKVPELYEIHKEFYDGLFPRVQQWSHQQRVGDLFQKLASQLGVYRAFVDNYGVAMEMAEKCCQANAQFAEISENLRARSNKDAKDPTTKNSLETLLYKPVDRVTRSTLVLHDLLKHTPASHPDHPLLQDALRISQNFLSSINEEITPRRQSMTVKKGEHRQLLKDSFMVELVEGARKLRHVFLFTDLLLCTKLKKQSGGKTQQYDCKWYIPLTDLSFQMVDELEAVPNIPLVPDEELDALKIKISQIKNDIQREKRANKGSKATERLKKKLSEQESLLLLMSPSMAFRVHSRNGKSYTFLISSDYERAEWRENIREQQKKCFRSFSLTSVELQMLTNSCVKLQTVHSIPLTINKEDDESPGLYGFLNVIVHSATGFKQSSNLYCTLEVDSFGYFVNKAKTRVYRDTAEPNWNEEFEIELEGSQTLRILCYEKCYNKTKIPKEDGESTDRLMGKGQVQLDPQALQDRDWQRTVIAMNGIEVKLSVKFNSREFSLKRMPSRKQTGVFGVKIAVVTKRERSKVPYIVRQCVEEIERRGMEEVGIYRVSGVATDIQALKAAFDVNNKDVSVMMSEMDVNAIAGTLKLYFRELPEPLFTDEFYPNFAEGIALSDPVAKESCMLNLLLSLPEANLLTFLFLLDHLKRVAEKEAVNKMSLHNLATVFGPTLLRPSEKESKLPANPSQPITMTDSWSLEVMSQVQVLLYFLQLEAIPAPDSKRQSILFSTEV
Bcr-Abl p210 (from UniProt P11274) R726A; F1100E, sequence (P11274 whole entry, stated change not applied): as above
Bcr-Abl p210 (from UniProt P11274) F1100E, sequence (P11274 whole entry, stated change not applied): as above

Substance | ratio to parent [1] | Kd [2]
Bcr-Abl p210 (from UniProt P11274) F1100E | 0.55 | –
Bcr-Abl p210 (from UniProt P11274) R723A; K724A; F1100E | 0.24 | –
Bcr-Abl p210 (from UniProt P11274) R726A; F1100E | 0.5 | –

Continued, values first:

ratio to parent [1] | Kd [2] | Substance
– | 1900 µM | Cdc42 (from UniProt P60953 1-191) (enzyme)
– | 600 µM | RhoA (from UniProt P61586 1-193) (enzyme)
